Results on two molecules are retold here after article PMC8073907, “Peptide targeting of lysophosphatidylinositol-sensing GPR55 for osteoclastogenesis tuning” (Cell Communication and Signaling : CCS, 2021).

Test [1] deals with Gpr55 mRNA in RAW264.7 cells. Kind of test: Modulation of Gpr55 mRNA levels by receptor ligands in RANKL-treated RAW264.7 cells. Type of test: cell-based, murine. Particulars: 30 ng/mL RANKL, 72 h; for Gpr55 mRNA levels (fold non-differentiated): alone or + 1 μM soybean LPI, 0.5 μM ML-191, 0.5 μM CBD or 30 μM O1918, means ± SEM of at least three independent experiments. The method, then: (§1) Total RNA was extracted using RNeasy isolation kits, cDNAs were obtained using QuantiTect Reverse Transcription kits, and real-time PCRs were performed with QuantiTect SYBR Green PCR kits (all from Qiagen, Hilden, Germany), according to the manufacturer instructions. The primers used for the real-time PCRs and their annealing temperatures are listed in the Additional file 1: Table S1. Human hypoxanthine phosphoribosyltransferase 1 (HPRT1) or murine β2-microglobulin were followed as housekeeping genes. The real-time PCR programme consisted of an initial 15 min at 95 °C, and then 45 cycles as follows: 94 °C for 15 s, annealing temperature of each primer for 30 s, and 72 °C for 30 s. The real-time PCR machine used was a LightCycler 480 Instrument II (Roche, Indianapolis, IN, USA).
(§2) For the osteoclastogenesis in-vitro assay, RAW264.7 cells were plated in differentiation medium (α-MEM with 10% heat-inactivated FBS, 2 mM L-glutamine, 100 U/mL penicillin, and 100 ug/mL streptomycin) at a density of 5 × 10^3 cells/well in 24-well plates on coverslips for morphological analysis, or at 2 × 10^4 cells/well in six-well plates for RNA extraction. Twenty-four hours later and every 48 h, the medium was replaced and the cells were treated with 15–30 ng/mL RANKL with DMSO and/or PBS as carriers, or with GPR55 antagonists/ agonists (0.5 µM ML-191, 30 µM O1918, 0.5 µM CBD, 0.5 μM CID16020046 1 µM soybean LPI, 1 μM ML-184), or with the peptides (150 nM peptide-P1; or the irrelevant peptide, Irr_P). Twenty-four hours after the last addition, the cells were fixed with 4% paraformaldehyde for morphological analyses or harvested for RNA extraction (see above).

Test [2] deals with HA-GPR55 in HEK293T cells. The test can be described thus: LPI-induced ERK1/2 activation in GPR55-transfected HEK293T cells. It counts as cell-based, human. The note with it: soybean or synthetic LPI, 100 nM to 10 µM, 3–30 min; different transfection methods. An excerpt: The construct of haemagglutinin (HA)-tagged human GPR55 in pcDNA3 (HA-GPR55) was a gift from Prof. K. Mackie, Indiana University, Bloomington, IN, USA [39], while the construct ss-3 × HA-GPR55 in pcDNA3.1 (ssGPR55) with a triple HA tag at the N-terminus and an optimised signal sequence (ss, derived from amino acids 1–33 of the human growth hormone: […]) for efficient surface expression was from Prof. A. Irving, Dundee University, UK [40]. For both constructs, mutations were introduced by site-directed mutagenesis using QuickChange kits (Stratagene, La Jolla, CA, USA), according to the manufacturer instructions. The primers for the K80A mutation were 5′-[…]-3′ and 5′-[…]-3′ (Tm, 70.6 °C), and for Q87A were 5′-[…]-3′ and 5′-[…]-3′ (Tm, 73.1 °C).
For GPR55 overexpression, HEK293T cells were plated in their growth medium without antibiotics at 2.6 × 10^5 cells/well in 12-well plates, and 24 h later, the cells were transfected with 1 µg cDNA/well using Lipofectamine 2000, according to the manufacturer instructions. The pcDNA3 empty vector or that coding for human HA-GPR55 wild-type or its mutants HA-GPR55-K80A and HA-GPR55-Q87A were used.
Twenty-four hours after transfection (HEK293T, HeLa cells or clones) or 72 h after interference (RAW264.7 cells), the cells were washed twice with HBSS^++, serum deprived (HEK293T cells for 4 h in DMEM; HeLa cells and clones for 2 h in MEM plus 2 mM glutamine and 25 mM HEPES; RAW264.7 cells for 2 h in DMEM), washed once again with HBSS^++, incubated in stimulation buffer (HBSS^++ with 10 mM HEPES, 0.4% faf-BSA for HEK293T cells; HBSS^++ with 25 mM HEPES and 0.01% faf-BSA for HeLa cells, clones, and RAW264.7 cells) in the absence or presence of stimuli, at 37 °C for the indicated times. […]
Protein lysates were subjected to SDS-PAGE, and after electrophoresis, the proteins were transferred to a nitrocellulose membrane (PerkinElmer Life Science, Boston, MA, USA). […] The membranes were then washed twice with T-TBS and once with TBS for 5 min, and the signals were detected by ECL (Amersham Pharmacia, Piscataway, NJ, USA). […]

Test [3] relates to osteoclasts derived from RAW264.7 cells. Kind of test: Osteoclast functional assay (bone resorption on bovine cortical bone slices). It counts as cell-based, murine. Particulars: 15 ng/mL RANKL, 7 days; at least three independent experiments. How it is done:
RAW264.7 cells were plated in differentiation medium at a density of 1250 cells/100 µL on 0.2-mm-thick bovine cortical bone slices (BoneSlices.com, Jelling, Denmark) in 96-well plates. Six hours later, 100 µL differentiation medium with RANKL (15 ng/mL, final concentration) was added, in the presence of a carrier or in combination with the GPR55 modulators. The media with the different compounds were replaced every 48 h, for a total of 7 days. At the end of this period, the cells were detached with a 10% bleach solution, and the resorption excavations were visualised by using Toluidine Blue staining (Sigma-Aldrich). Images of the resorption areas were obtained under the microscope (SW380T; Swift Optical Instruments, Inc., TX, USA) using the 10 × objective, and acquired with a digital camera (Swiftcam SC1003; Swift Optical Instruments, Inc.). The total eroded surface underwent blinded quantification using ImageJ (NIH), and was subdivided into pit and trench surfaces. Pits were characterised as round excavations with well-defined edges where the ratio between length and width was < 2.0. Trenches were defined as elongated excavations with well-defined edges whose length was at least twice the wide, and with clear signs of continued resorption. The prevalence of trenches was calculated as a proportion (%) of the trench surface relative to the total eroded surface.

Test [4] concerns RAW264.7 cells. The test can be described thus: RANKL-induced transcription of osteoclastogenesis markers in RAW264.7 cells (real-time PCR). Type of test: cell-based, murine. The note with it: 30 ng/mL RANKL, 72 h; mean ± range of two independent experiments. The method, then: as §1
For transient interference of Gpr55, RAW264.7 cells were plated at 6 × 10^5 cells/well in six-well plates in growth medium without antibiotics. Twenty-four hours later, the cells were transfected with 250 pmol/well non-targeting small-interfering (si)RNAs (si-NT; siGENOME siRNA Pool #2; D-001206-14; Dharmacon, Chicago, IL, USA) or Gpr55-specific siRNAs (si-GPR55; siGENOME mouse GPR55 SMART pool; M-043590-01; Dharmacon) using Lipofectamine LTX and Plus Reagent, according to the manufacturer instructions. Twenty-four hours later, the cells were plated for the different assays or for RNA extraction. The efficiency of interference was monitored by real-time PCR after 72 h of interference, using the primers listed in the Additional file 1: Table S1. β2-microglobulin was followed as a housekeeping gene.
as §2
(In general: Quantitative PCR measures a nucleic acid by following its amplification.)

For the molecule “L-α-lysophosphatidylinositol sodium salt from soybean [soybean LPI]”, the “Gpr55 mRNA levels (fold non-differentiated)” value in test [1] worked out at 24.5 ± 2.1 fold non-differentiated. In addition, the “ERK1/2 activation in GPR55-transfected compared to empty-vector-transfected cells” value in test [2] is listed as “inconsistent ERK1/2 activation”.

B1: RANKL: Receptor-activator of nuclear factor kappa-β ligand, Peprotech (protein, UniProt O14788 140-317, looked up)
Tumor necrosis factor ligand …: IRAEKAMVDGSWLDLAKRSKLEAQPFAHLTINATDIPSGSHKVSLSSWYHDRGWAKISNMTFSNGKLIVNQDGFYYLYANICFRHHETSGDLATEYLQLMVYVTKTSIKIPSSHTLMKGGSTKYWSGNSEFHFYSINVGGFFKLRSGEEISIEVSNPSLLDPDQDATYFGAFKVRDID
Take B1: the “trench surface relative to total eroded surface” value in test [3] is reported as 42 ± 8 % of total eroded surface. Also, in test [4], the “Cathepsin-k mRNA increase versus undifferentiated cells” value is on record as 468.5 (±24.3) -fold, the “Mmp-9 mRNA increase versus undifferentiated cells” value is on record as 673.3 (±4.7) -fold, the “Nfatc1 mRNA increase versus undifferentiated cells” value was 11.9 (±2.2) -fold and the “Trap mRNA increase versus undifferentiated cells” value is recorded as 188.8 (±57.6) -fold. Also, the “Gpr55 mRNA levels (fold non-differentiated)” value in test [1] turned out to be 16.1 ± 1.6 fold non-differentiated. Further, the “Gpr55 mRNA increase” value in test [1] (three independent experiments) is listed as 14 -fold.
